Results published in PMC9482650, “Quantitative fragmentomics allow affinity mapping of interactomes” (Nature Communications, 2022).

Experiments:
Test in all cases: holdup assay
Design in all cases: key: below the threshold = too weak to quantify, mostly under pKd 3.1 to 4
AHNAK1, Q09666 = target: AHNAK1, Q09666
ARHGAP21, Q5T5U3 = target: T1, ARHGAP21, Q5T5U3
T1 sequence (Q5T5U3 45-169, limits assumed, looked up): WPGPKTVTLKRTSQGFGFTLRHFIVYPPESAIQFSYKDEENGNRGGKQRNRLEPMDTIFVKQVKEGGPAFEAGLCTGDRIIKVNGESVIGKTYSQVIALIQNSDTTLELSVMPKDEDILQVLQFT

CARD11, Q9BXL7 = target: T2, CARD11, Q9BXL7
T2 sequence (Q9BXL7 662-765, limits assumed, looked up): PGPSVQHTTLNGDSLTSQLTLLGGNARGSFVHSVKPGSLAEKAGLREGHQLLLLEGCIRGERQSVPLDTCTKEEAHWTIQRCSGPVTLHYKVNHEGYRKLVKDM

DLG4_2, P78352 = target: DLG4_2, P78352
FRMPD1, Q5SYB0 = target: T3, FRMPD1, Q5SYB0
T3 sequence (Q5SYB0 52-145, limits assumed, looked up): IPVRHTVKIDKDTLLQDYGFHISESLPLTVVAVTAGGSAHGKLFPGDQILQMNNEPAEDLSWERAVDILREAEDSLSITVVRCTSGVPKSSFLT

FRMPD2_1, Q68DX3 = target: FRMPD2_1, Q68DX3
FRMPD2_2, Q68DX3 = target: FRMPD2_2, Q68DX3
GRID2IP_1, A4D2P6 = target: GRID2IP_1, A4D2P6
GRIP1_4, Q9Y3R0 = target: T4, GRIP1_4, Q9Y3R0
T4 sequence (Q9Y3R0 467-571, limits assumed, looked up): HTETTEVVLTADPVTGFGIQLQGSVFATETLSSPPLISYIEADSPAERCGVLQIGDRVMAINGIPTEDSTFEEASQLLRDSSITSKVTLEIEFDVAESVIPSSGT

HTRA4, P83105 = target: T5, HTRA4, P83105
T5 sequence (P83105 378-476, limits assumed, looked up): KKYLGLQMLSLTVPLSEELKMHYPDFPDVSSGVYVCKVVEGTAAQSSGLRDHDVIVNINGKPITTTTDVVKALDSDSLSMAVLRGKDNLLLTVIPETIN

IL16_4, Q14005 = target: IL16_4, Q14005
Inadl_1, Q8NI35 = target: Inadl_1, Q8NI35
Inadl_3, Q8NI35 = target: Inadl_3, Q8NI35
Inadl_6, Q8NI35 = target: Inadl_6, Q8NI35
Inadl_8, Q8NI35 = target: Inadl_8, Q8NI35
Inadl_9, Q8NI35 = target: Inadl_9, Q8NI35
LIN7B, Q9HAP6 = target: T6, LIN7B, Q9HAP6
T6 sequence (Q9HAP6 88-185, limits assumed, looked up): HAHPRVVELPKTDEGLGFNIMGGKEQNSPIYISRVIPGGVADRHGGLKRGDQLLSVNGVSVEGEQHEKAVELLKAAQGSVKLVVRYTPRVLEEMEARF

LIN7C, Q9NUP9 = target: T7, LIN7C, Q9NUP9
T7 sequence (Q9NUP9 88-185, limits assumed, looked up): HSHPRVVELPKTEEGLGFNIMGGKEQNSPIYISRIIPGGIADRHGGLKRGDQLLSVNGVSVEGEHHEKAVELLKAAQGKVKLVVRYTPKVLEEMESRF

LNX1_3, Q8TBB1 = target: LNX1_3, Q8TBB1
LNX2_3, Q8N448 = target: T8, LNX2_3, Q8N448
T8 sequence (Q8N448 463-564, limits assumed, looked up): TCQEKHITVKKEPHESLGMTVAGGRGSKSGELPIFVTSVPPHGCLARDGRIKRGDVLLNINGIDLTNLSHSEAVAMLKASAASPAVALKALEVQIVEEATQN

MAGI2_5, Q86UL8 = target: MAGI2_5, Q86UL8
MAST2, Q6P0Q8 = target: MAST2, Q6P0Q8
MPP2, Q14168 = target: T9, MPP2, Q14168
T9 sequence (Q14168 180-250, limits assumed, looked up): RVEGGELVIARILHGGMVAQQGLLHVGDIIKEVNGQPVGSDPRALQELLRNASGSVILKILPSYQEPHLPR

NHERF4_1, Q86UT5-2 = target: NHERF4_1, Q86UT5-2
NHERF4_4, Q86UT5 = target: NHERF4_4, Q86UT5
PDZD2_2, O15018 = target: T10, PDZD2_2, O15018
T10 sequence (O15018 329-429, limits assumed, looked up): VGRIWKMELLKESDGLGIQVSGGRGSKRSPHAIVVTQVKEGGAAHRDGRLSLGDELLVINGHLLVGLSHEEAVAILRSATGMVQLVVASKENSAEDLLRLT

PDZD7_3, Q9H5P4 = target: T11, PDZD7_3, Q9H5P4
T11 sequence (Q9H5P4 857-944, limits assumed, looked up): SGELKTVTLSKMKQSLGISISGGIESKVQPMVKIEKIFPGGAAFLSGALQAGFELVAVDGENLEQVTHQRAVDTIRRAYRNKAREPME

[1] = modified: phospho on T at position -2 from the C-terminal residue
[2] = plain residues with an end cap or a label only (N-terminal biotin on a linker: ado-ado)

Chain of NHERF4_4, Q86UT5 (Q86UT5 464-550): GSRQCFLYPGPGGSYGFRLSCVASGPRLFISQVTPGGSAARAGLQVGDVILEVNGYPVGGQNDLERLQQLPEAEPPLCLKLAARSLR
Chain of DLG4_2, P78352 (P78352 155-259): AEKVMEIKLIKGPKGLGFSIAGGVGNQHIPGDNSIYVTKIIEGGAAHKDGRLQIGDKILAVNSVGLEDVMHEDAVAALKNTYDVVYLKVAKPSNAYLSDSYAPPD
Chain of Inadl_8, Q8NI35 (Q8NI35 1425-1530): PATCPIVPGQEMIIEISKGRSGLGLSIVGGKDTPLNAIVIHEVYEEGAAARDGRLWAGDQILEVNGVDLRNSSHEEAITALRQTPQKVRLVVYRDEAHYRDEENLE
Chain of MAGI2_5, Q86UL8 (Q86UL8 915-1017): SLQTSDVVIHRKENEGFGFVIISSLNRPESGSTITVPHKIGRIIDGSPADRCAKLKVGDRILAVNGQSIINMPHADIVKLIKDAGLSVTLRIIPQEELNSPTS
Chain of NHERF4_1, Q86UT5-2 (Q86UT5 other isoform, or with tags, fused parts or gaps): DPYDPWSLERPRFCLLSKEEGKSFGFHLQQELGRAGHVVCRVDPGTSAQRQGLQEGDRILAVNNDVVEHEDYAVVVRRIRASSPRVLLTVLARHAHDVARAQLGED
Chain of Inadl_3, Q8NI35 (Q8NI35 359-469): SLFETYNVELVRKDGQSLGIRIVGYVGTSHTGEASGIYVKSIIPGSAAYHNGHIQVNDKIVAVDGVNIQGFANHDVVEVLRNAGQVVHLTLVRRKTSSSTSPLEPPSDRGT
Chain of LNX1_3, Q8TBB1 (Q8TBB1 500-596): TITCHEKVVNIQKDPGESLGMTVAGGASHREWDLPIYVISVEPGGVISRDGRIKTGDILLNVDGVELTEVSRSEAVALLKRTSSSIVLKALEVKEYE
Chain of Inadl_9, Q8NI35 (Q8NI35 1530-1615): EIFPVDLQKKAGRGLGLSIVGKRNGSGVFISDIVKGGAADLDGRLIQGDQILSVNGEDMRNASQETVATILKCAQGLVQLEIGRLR
Chain of MAST2, Q6P0Q8 (Q6P0Q8 1099-1202): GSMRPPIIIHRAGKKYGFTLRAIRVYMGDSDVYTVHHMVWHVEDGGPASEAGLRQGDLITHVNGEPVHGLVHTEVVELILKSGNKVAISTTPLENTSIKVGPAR
Chain of Inadl_6, Q8NI35 (Q8NI35 1058-1167): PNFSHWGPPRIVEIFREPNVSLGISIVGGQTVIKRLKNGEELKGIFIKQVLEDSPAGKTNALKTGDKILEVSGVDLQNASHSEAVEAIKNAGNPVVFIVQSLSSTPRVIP
Chain of AHNAK1, Q09666 (Q09666 4-100): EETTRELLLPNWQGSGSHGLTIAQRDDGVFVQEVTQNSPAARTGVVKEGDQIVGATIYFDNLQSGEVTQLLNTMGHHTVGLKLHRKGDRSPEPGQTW
Chain of IL16_4, Q14005 (Q14005 1229-1329): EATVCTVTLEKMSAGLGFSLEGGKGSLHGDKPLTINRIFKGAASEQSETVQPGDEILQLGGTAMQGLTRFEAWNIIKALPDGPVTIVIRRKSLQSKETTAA
Chain of GRID2IP_1, A4D2P6 (A4D2P6 1-87): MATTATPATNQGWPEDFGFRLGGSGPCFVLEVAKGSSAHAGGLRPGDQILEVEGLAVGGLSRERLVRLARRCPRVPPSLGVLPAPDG
Chain of FRMPD2_2, Q68DX3 (Q68DX3 944-1038): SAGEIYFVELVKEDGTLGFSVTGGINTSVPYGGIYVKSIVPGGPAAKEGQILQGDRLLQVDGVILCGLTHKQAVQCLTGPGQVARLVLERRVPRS
Chain of Inadl_1, Q8NI35 (Q8NI35 113-229): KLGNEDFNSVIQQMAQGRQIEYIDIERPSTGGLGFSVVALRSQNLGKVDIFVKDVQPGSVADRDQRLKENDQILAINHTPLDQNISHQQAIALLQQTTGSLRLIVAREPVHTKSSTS
Chain of FRMPD2_1, Q68DX3 (Q68DX3 770-861): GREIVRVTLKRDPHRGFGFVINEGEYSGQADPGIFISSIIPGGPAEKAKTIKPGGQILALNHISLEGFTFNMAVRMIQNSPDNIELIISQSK

Q: How did the pKd (AHNAK1, Q09666; [1]) turn out when SRSRRRETAL [HPV33-E6_-2P, P06427] was run?
A: below the threshold

Q: What about the pKd (ARHGAP21, Q5T5U3; [1]) of the same binder?
A: 4.02

Q: What about the pKd (CARD11, Q9BXL7; [1]) of the same binder?
A: below the threshold

Q: What about the pKd (DLG4_2, P78352; [1]) of the same binder?
A: below the threshold

Q: What about the pKd (FRMPD1, Q5SYB0; [1]) of the same binder?
A: below the threshold

Q: What about the pKd (FRMPD2_1, Q68DX3; [1]) of the same binder?
A: below the threshold

Q: What about the pKd (FRMPD2_2, Q68DX3; [1]) of the same binder?
A: below the threshold

Q: What about the pKd (GRID2IP_1, A4D2P6; [1]) of the same binder?
A: below the threshold

Q: What about the pKd (GRIP1_4, Q9Y3R0; [1]) of the same binder?
A: below the threshold

Q: What about the pKd (HTRA4, P83105; [1]) of the same binder?
A: below the threshold

Q: What about the pKd (IL16_4, Q14005; [1]) of the same binder?
A: below the threshold

Q: What about the pKd (Inadl_1, Q8NI35; [1]) of the same binder?
A: below the threshold

Q: What about the pKd (Inadl_3, Q8NI35; [1]) of the same binder?
A: below the threshold

Q: What about the pKd (Inadl_6, Q8NI35; [1]) of the same binder?
A: below the threshold

Q: And the pKd (Inadl_8, Q8NI35; [1])?
A: below the threshold

Q: And the pKd (Inadl_9, Q8NI35; [1])?
A: below the threshold

Q: And the pKd (LIN7B, Q9HAP6; [1])?
A: below the threshold

Q: What about the pKd (LIN7C, Q9NUP9; [1]) of the same binder?
A: 4.08

Q: And the pKd (LNX1_3, Q8TBB1; [1])?
A: below the threshold

Q: What about the pKd (LNX2_3, Q8N448; [1]) of the same binder?
A: below the threshold

Q: And the pKd (MAGI2_5, Q86UL8; [1])?
A: below the threshold

Q: What about the pKd (MAST2, Q6P0Q8; [1]) of the same binder?
A: 3.62

Q: And the pKd (MPP2, Q14168; [1])?
A: below the threshold

Q: And the pKd (NHERF4_1, Q86UT5-2; [1])?
A: 4.6

Q: And the pKd (NHERF4_4, Q86UT5; [1])?
A: below the threshold

Q: What about the pKd (PDZD2_2, O15018; [1]) of the same binder?
A: below the threshold

Q: And the pKd (PDZD7_3, Q9H5P4; [1])?
A: 3.74

Q: DYSNLRETDI [ADRA1D, P25100] was tested. Which pKd (AHNAK1, Q09666; [2]) did it give?
A: below the threshold

Q: And the pKd (ARHGAP21, Q5T5U3; [2])?
A: 3.98

Q: What about the pKd (CARD11, Q9BXL7; [2]) of the same binder?
A: below the threshold

Q: And the pKd (DLG4_2, P78352; [2])?
A: 4.54

Q: And the pKd (FRMPD1, Q5SYB0; [2])?
A: below the threshold

Q: And the pKd (FRMPD2_1, Q68DX3; [2])?
A: below the threshold

Q: And the pKd (FRMPD2_2, Q68DX3; [2])?
A: below the threshold

Q: What about the pKd (GRID2IP_1, A4D2P6; [2]) of the same binder?
A: below the threshold

Q: And the pKd (GRIP1_4, Q9Y3R0; [2])?
A: below the threshold

Q: And the pKd (HTRA4, P83105; [2])?
A: 3.75

Q: And the pKd (IL16_4, Q14005; [2])?
A: below the threshold

Q: And the pKd (Inadl_1, Q8NI35; [2])?
A: below the threshold

Q: And the pKd (Inadl_3, Q8NI35; [2])?
A: 3.84

Q: What about the pKd (Inadl_6, Q8NI35; [2]) of the same binder?
A: 3.73

Q: What about the pKd (Inadl_8, Q8NI35; [2]) of the same binder?
A: 3.56

Q: What about the pKd (Inadl_9, Q8NI35; [2]) of the same binder?
A: below the threshold

Q: And the pKd (LIN7B, Q9HAP6; [2])?
A: 3.62

Q: What about the pKd (LIN7C, Q9NUP9; [2]) of the same binder?
A: 4.05

Q: What about the pKd (LNX1_3, Q8TBB1; [2]) of the same binder?
A: below the threshold

Q: And the pKd (LNX2_3, Q8N448; [2])?
A: below the threshold

Q: What about the pKd (MAGI2_5, Q86UL8; [2]) of the same binder?
A: below the threshold

Q: And the pKd (MAST2, Q6P0Q8; [2])?
A: 5.22

Q: And the pKd (MPP2, Q14168; [2])?
A: below the threshold

Q: And the pKd (NHERF4_1, Q86UT5-2; [2])?
A: below the threshold

Q: And the pKd (NHERF4_4, Q86UT5; [2])?
A: below the threshold

Q: And the pKd (PDZD2_2, O15018; [2])?
A: 4.18

Q: And the pKd (PDZD7_3, Q9H5P4; [2])?
A: 4.97

Q: What does the source list for SAGADSETHC [SLCO1B1, Q9Y6L6]?
A: pKd (AHNAK1, Q09666; [2]): below the threshold; pKd (ARHGAP21, Q5T5U3; [2]): 4.02; pKd (CARD11, Q9BXL7; [2]): below the threshold; pKd (DLG4_2, P78352; [2]): below the threshold; pKd (FRMPD1, Q5SYB0; [2]): below the threshold; pKd (FRMPD2_1, Q68DX3; [2]): below the threshold; pKd (FRMPD2_2, Q68DX3; [2]): below the threshold; pKd (GRID2IP_1, A4D2P6; [2]): below the threshold; pKd (GRIP1_4, Q9Y3R0; [2]): below the threshold; pKd (HTRA4, P83105; [2]): below the threshold; pKd (IL16_4, Q14005; [2]): below the threshold; pKd (Inadl_1, Q8NI35; [2]): below the threshold; pKd (Inadl_3, Q8NI35; [2]): below the threshold; pKd (Inadl_6, Q8NI35; [2]): below the threshold; pKd (Inadl_8, Q8NI35; [2]): below the threshold; pKd (Inadl_9, Q8NI35; [2]): below the threshold; pKd (LIN7B, Q9HAP6; [2]): 3.69; pKd (LIN7C, Q9NUP9; [2]): 3.93; pKd (LNX1_3, Q8TBB1; [2]): below the threshold; pKd (LNX2_3, Q8N448; [2]): below the threshold; pKd (MAGI2_5, Q86UL8; [2]): below the threshold; pKd (MAST2, Q6P0Q8; [2]): 4.62; pKd (MPP2, Q14168; [2]): below the threshold; pKd (NHERF4_1, Q86UT5-2; [2]): below the threshold; pKd (NHERF4_4, Q86UT5; [2]): below the threshold; pKd (PDZD2_2, O15018; [2]): 3.68; pKd (PDZD7_3, Q9H5P4; [2]): below the threshold
